According to patent publication US20150176059:
Where two headings read alike, the source gives them in different places.

Tests used:
[1] = system: Z05-D DNA polymerase (Thermus sp. Z05?); settings: SYBR Green melting, 50 mM Tris pH 8.0, 100 mM KCl, 2.5 mM MgCl2
[2] = system: Z05 DNA polymerase (Thermus sp. Z05?); experiment: inhibition; settings: KRAS PCR, 60 C, 10x excess, no UNG, 20 nM Z05, 3 mM MgCl2

“CGATCATCTCAGAACATTCTTAGCGTTTTGTTCTTGTGTATGATCG [U0 (NTQ21-46A)]” gave a binding ([1]; aptamer Tm 60.7 C with 20 nM Z05-D vs 59.0 C without) of 1.7 °C and an activity ([2]; no-target Ct 32.0 vs 25.7 without aptamer) of 32 Ct.
“CGATCATCTCAGAACATTCTTAGCGTTTUGUUCUUGTGTATGATCG [U2]” showed a binding ([1]; dU replacing dT at positions shown as u (medium dU content), aptamer Tm 59.5 C with 20 nM Z05-D vs 57.9 C without) of 1.6 °C and an activity ([2]; dU replacing dT at positions shown as u (medium dU content), no-target Ct 31.2 vs 25.7 without aptamer) of 31.2 Ct.
Work on “CGAUCAUCTCAGAACATTCTTAGCGTTTTGTTCTTGTGTAUGAUCG [U1]” yielded a binding ([1]; dU replacing dT at positions shown as u (low dU content), aptamer Tm 58.4 C with 20 nM Z05-D vs 56.8 C without) of 1.6 °C and an activity ([2]; dU replacing dT at positions shown as u (low dU content), no-target Ct 31.7 vs 25.7 without aptamer) of 31.7 Ct.
With “CGAUCAUCTCAGAACATTCTTAGCGTTTUGUUCUUGTGTAUGAUCG [U3]” the binding ([1]; dU replacing dT at positions shown as u (high dU content), aptamer Tm 57.6 C with 20 nM Z05-D vs 55.6 C without) was 2 °C and the activity ([2]; dU replacing dT at positions shown as u (high dU content), no-target Ct 30.8 vs 25.7 without aptamer) was 30.8 Ct.
